Data on 1 molecule can be found in paper PMC8752127 (Structure(London, England:1993), 2022).

In the experiment the target is CEP164^1−109 (N-terminal domain of human CEP164), untagged (human, UniProt Q9UPV0). The experiment in a line: crystal structure; nanobody and CEP164 1-109 (or the TTBK2 1074-1087-CEP164 1-109 fusion protein) mixed equimolar; vapour diffusion at 19°C. Particulars: both partners purified.

B1: camelid nanobody 36Z (VHH)
VHH: QVQLQESGGGLVQAGGSLNLSCVASGSSHFNSMGWYRQAPGKQRDLVADISNDGVTNYADSVKDRFTISTNNAKNAVYLQMNNLKPEDTAVYYCNAVAVAGRAFSYWGQGTQVTVSS
As to B1, the binding result is “binds”.
